In the DeepSol protein solubility set:

Test: soluble on expression in E. coli; label from the status in PepcDB or PDB records

Sequence	soluble on expression in E. coli
MTVRALLTPEIAPRMGIVLFRPGSELMPLFMQGRVLLEPEPERYSSFASGAVPAASQPLADDPAVRAVFRNEAVIRRAGGVECLESWLLREKGCQWPHSDWHSENMTTMRHAPGAIRLCWHCDNQLRDQFTERLESMATDNCARWVLSVVRRDLGFDDSHVVTMPELCWWLVRNDLADALPESAARKALRLPKPVVPSVTRESDLVPSVPATSIIQDKAKKVLALKVDPESPESFMLRPKRRRWVNEKYTRWVKTQPCACCGKPADDPHHLIGHGQGGMGTKAHDLFVLPLCRKHHDELHADTVTFEEKYGSQLELIFRFIDRALAIGVLA	not soluble
MIAQQFNRARHILRHNLVRPFYQPKFYLESGKLAGFEALLRWYDEDNQIQLPKLIINAFEDYSLASRLSEKMQLNIFKDMASWINQGLQLVPVSINAAPVEFLKDNYAELLLERLNQFEIPYHLIEIEITEHLLDDQGKNFISRALAKLKQNGIRIALDDFGTGHSSLTRLANLPVDCLKIDCDFVQRMEQEKFISALVQSVILMSNNLGIDVVAEGIESQEQLELLKQQGCEVGQGFLFSQA	not soluble
MDKFRVQGPTKLQGEVTISGAKNAALPILFAALLAEEPVEIQNVPKLKDVDTSMKLLSQLGAKVERDGSVHIDARDVNVFCAPYDLVKTMRASIWALGPLVARFGQGQVSLPGGCTIGARPVDLHISGLEQLGATIKLEEGYVKASVDGRLKGAHIVMDKVSVGATVTIMCAATLAEGTTIIENAAREPEIVDTANFLITLGAKISGQGTDRIVIEGVERLGGGVYRVLPDRIETGTFLVAAAISRGKIICRNAQPDTLDAVLAKLRDAGADIEVGEDWISLDMHGKRPKAVNVRTAPHPAFPTDMQAQFTLLNLVAEGTGFITETVFENRFMHVPELSRMGAHAEIESNTVICHGVEKLSGAQVMATDLRASASLVLAGCIAEGTTVVDRIYHIDRGYERIEDKLRALGANIERVKGELVPR	soluble
GPGSMNCDQSPEAPCIVYICKLIDTQYLVGRVVGSVENHDGAFIGFGRVYSGRLRAGQPVYVHSDGVVVEATVGSVYLFRGAGLEETSEVSAGFLCGVGGLTPCITKYATISSVPNMPPFKPLVLQSTSIVRLSVFPKDPRSLQELERGLRLLYKVDPQVEVSMLPTGEHVIGTAGEVHAERCLKDLIDTFAQVEVVASEPLVSFRETIVSNLSAKPKPHTASLMDGAFHVTLQARPLPAEVLELIKDDGKNSGNNPQLLRQAVAALAEHRRFSADVKNGVVSSGPSRLGFLGAVLLANFDGTADPVACWATLQDWKESVVAGFQAACESGPMAQEPLYGVAFVVTNIFVDADSDISGGMVLPSVREACRAAMKLHPRRLVEPVYECTVYSSGFTQGKIYASLSRRRSEIVEEVPNEGSDLFYIRCWLPAVEAFGLQDELRVQTQGASTAQLQMSHWEVIDADPYFVPTTKEEFEEHGAEVATKNIAEQLLERIMRRKGLYRERVVENAEKQKFSLKGA	not soluble
SLAEPPAQDPAELAAAAESYLRQQLAALPGEPSITLDPLRTDRLDACEALTPFMPSGMRVRARMTVGLRCVAPRTWTVYAQATVSVPGQYYVAARQIAPGKTIEAADLTTRDGDLVALPPGVITDAAAILGMRPAHRIAAGQPIKGAGLRSAESVSRGQSVRITARGNGFVVSSEGQALDNAPPGATVQVRTASGQVVSGIVQAAGLVEIQL	not soluble
GSRVALVTGANRGIGLAIARELCRQFSGDVVLTARDVARGQAAVQQLQAEGLSPRFHQLDIDDLQSIRALRDFLRKEYGGLNVLVNNAAVAFKSDDPMPFDIKAEMTLKTNFFATRNMCNELLPIMKPHGRVVNISSLQCLRAFENCSEDLQERFHSETLTEGDLVDLMKKFVEDTKNEVHEREGWPNSPYGVSKLGVTVLSRILARRLDEKRKADRILVNACCPGPVKTDMDGKDSIRTVEEGAETPVYLALLPPDATEPQGQLVHDKVVQNW	soluble
MESLASLYKNHIATLQERTRDALARFKLDALLIHSGELFNVFLDDHPYPFKVNPQFKAWVPVTQVPNCWLLVDGVNKPKLWFYLPVDYWHNVEPLPTSFWTEDVEVIALPKADGIGSLLPAARGNIGYIGPVPERALQLGIEASNINPKGVIDYLHYYRSFKTEYELACMREAQKMAVNGHRAAEEAFRSGMSEFDINIAYLTATGHRDTDVPYSNIVALNEHAAVLHYTKLDHQAPEEMRSFLLDAGAEYNGYAADLTRTWSAKSDNDYAQLVKDVNDEQLALIATMKAGVSYVDYHIQFHQRIAKLLRKHQIITDMSEEAMVENDLTGPFMPHGIGHPLGLQVHDVAGFMQDDSGTHLAAPAKYPYLRCTRILQPGMVLTIEPGIYFIESLLAPWREGQFSKHFNWQKIEALKPFGGIRIEDNVVIHENNVENMTRDLKLA	soluble
LVPRGSAMGSGNDTSRGANKTVVVTTILESPYVMMKKNHEMLEGNERYEGYCVDLAAEIAKHCGFKYKLTIVGDGKYGARDADTKIWNGMVGELVYGKADIAIAPLTITLVREEVIDFSKPFMSLGISIMIKKGTPIESAEDLSKQTEIAYGTLDSGSTKEFFRRSKIAVFDKMWTYMRSAEPSVFVRTTAEGVARVRKSKGKYAYLLESTMNEYIEQRKPCDTMKVGGNLDSKGYGIATPKGSSLGNAVNLAVLKLNEQGLLDKLKNKWWYDKGECGS	soluble
GSSGSSGVSSQETQGGPLAPMTGTIEKVFVKAGDKVKAGDSLMVMIAMKMEHTIKSPKDGTVKKVFYREGAQANRHTPLVEFEEEESDKRESESGPSSG	soluble
MGSDKIHHHHHHMSLFHLIAPSGYCIKQHAALRGIQRLTDAGHQVNNVEVIARRCERFAGTETERLEDLNSLARLTTPNTIVLAVRGGYGASRLLADIDWQALVARQQHDPLLICGHSDFTAIQCGLLAHGNVITFSGPMLVANFGADELNAFTEHHFWLALRNETFTIEWQGEGPTCRAEGTLWGGNLAMLISLIGTPWMPKIENGILVLEDINEHPFRVERMLLQLYHAGILPRQKAIILGSFSGSTPNDYDAGYNLESVYAFLRSRLSIPLITGLDFGHEQRTVTLPLGAHAILNNTREGTQLTISGHPVLKM	not soluble
GMNPENWLLLRRVVRFGDTDAAGVMHFHQLFRWCHESWEESLESYGLNPADIFPGSRKSEVTPEVALPIIHCQADFRRPIHTGDALAMELRPERLNPNSFQVHFEFRCEEQIAAHALIRHLAINAQTRHRCALPEGIDRWLEASGVGKIGSI	soluble
MGHHHHHHSHMADDIDIEAMLEAPYKKDENKLSSANGHEERSKKRKKSKSRSRSHERKRSKSKERKRSRDRERKKSKSRERKRSRSKERRRSRSRSRDRRFRGRYRSPYSGPKFNSAIRGKIGLPHSIKLSRRRSRSKSPFRKDKSPVREPIDNLTPEERDARTVFCMQLAARIRPRDLEEFFSTVGKVRDVRMISDRNSRRSKGIAYVEFVDVSSVPLAIGLTGQRVLGVPIIVQASQAEKNRAAAMANNLQKGSAGPMRLYVGSLHFNITEDMLRGIFEPFGRIESIQLMMDSETGRSKGYGFITFSDSECAKKALEQLNGFELAGRPMKVGHVTERTDASSASSFLDSDELERTGIDLGTTGRLQLMARLAEGTGLQIPPAAQQALQMSGSLAFGAVAEFSFVIDLQTRLSQQTEASALAAAASVQPLATQCFQLSNMFNPQTEEEVGWDTEIKDDVIEECNKHGGVIHIYVDKNSAQGNVYVKCPSIAAAIAAVNALHGRWFAGKMITAAYVPLPTYHNLFPDSMTATQLLVPSRR	soluble
MSLGIVIYGTRIIYPAEHKEVMVQLMNQGNRSSLMQAWIDDGDTSLPPEKIQVPFMLTPPVAKIGANSGQQVKIKIMPNKLPTNKESIFYLNVLDIPPNSPEQEGKNALKFAMQNRIKLFYRPAGIAPVNKVTFKKLLVNRSGNGLVIKNDSANWVTISDVKANNVKVNYETIMIAPLESQSVNVKSNNANNWHLTIIDDHGNYISDKEGHHHHHH	soluble
MSDLETVAKFLAESVIASTAKTSERNLRQLETQDGFGLTLLHVIASTNLPLSTRLAGALFFKNFIKRKWVDENGNHLLPANNVELIKKEIVPLMISLPNNLQVQIGEAISSIADSDFPDRWPTLLSDLASRLSNDDMVTNKGVLTVAHSIFKRWRPLFRSDELFLEIKLVLDVFTAPFLNLLKTVDEQITANENNKASLNILFDVLLVLIKLYYDFNCQDIPEFFEDNIQVGMGIFHKYLSYSNPLLEDPDETEHASVLIKVKSSIQELVQLYTTRYEDVFGPMINEFIQITWNLLTSISNQPKYDILVSKSLSFLTAVTRIPKYFEIFNNESAMNNITEQIILPNVTLREEDVELFEDDPIEYIRRDLEGSDTDTRRRACTDFLKELKEKNEVLVTNIFLAHMKGFVDQYMSDPSKNWKFKDLYIYLFTALAINGNITNAGVSSTNNLLNVVDFFTKEIAPDLTSNNIPHIILRVDAIKYIYTFRNQLTKAQLIELMPILATFLQTDEYVVYTYAAITIEKILTIRESNTSPAFIFHKEDISNSTEILLKNLIALILKHGSSPEKLAENEFLMRSIFRVLQTSEDSIQPLFPQLLAQFIEIVTIMAKNPSNPRFTHYTFESIGAILNYTQRQNLPLLVDSMMPTFLTVFSEDIQEFIPYVFQIIAFVVEQSATIPESIKPLAQPLLAPNVWELKGNIPAVTRLLKSFIKTDSSIFPDLVPVLGIFQRLIASKAYEVHGFDLLEHIMLLIDMNRLRPYIKQIAVLLLQRLQNSKTERYVKKLTVFFGLISNKLGSDFLIHFIDEVQDGLFQQIWGNFIITTLPTIGNLLDRKIALIGVLNMVINGQFFQSKYPTLISSTMNSIIETASSQSIANLKNDYVDLDNLEEISTFGSHFSKLVSISEKPFDPLPEIDVNNGVRLYVAEALNKYNAISGNTFLNTILPQLTQENQVKLNQLLVGNRSHHHHHH	soluble
MGSDKIHHHHHHMSEFDVAVIGAGPAGSSAAIRLAQNGMNVLLVERGDPPGTKNVSGAVLWGNELAKVVPDWERSAPVERYVTRKEVAFLTEKSKIAISFSSEELQNSKSGKIIVRGKFDQWLAKKAKDAGAMLVTGVTVDRLAIDNGKVIGIQQDNDVITADAVVVAEGANPRVLINSGLRPKLSDRDVALGIKETIKLPENVINERFNVDSKSGFASEFVLGFLDDGLLSGGFLYTNKDTVSLGIVASLDRLRANGVTHSYDIMGKFEEHPFIKNLIKDGIPDEYAAHLVPEGGISSMPKLYGNGYLVAGDAAAFTFSNGMVLQGINYAITSGILAADTIIENRNNINENTLAKYVDKLRESYVLSDLYNFNGIQNVTWSDFVQKSLPTLAESVMMSLFDEKGMPKKHLRQIVTDAMKSGHMKYSDLITNGYRVIKRM	not soluble
SNAMENEKILNPIIIQRADPMIYKHNDGYYYFTASVPEYDRIEVRKAKTIEGLRNAEPVDVWRRHESGEMSNLIWAPEIHFINGAWYIYFAAAPDKNIEDDTFNHRMFVIQNENENPFTGNWVEKGRIKTAWESFSLDATIFEHNEKLYYVWAQQDINIKGHSNIYIAEMENPWTLKTKPVMLTKPELEWEIKGFWVNEGPAVLKKNGKIFITYSASATDVNYCIGMLTAEENSNLLDKNSWTKSQTPVFKTSMENHQYGPGHNSFTVSEDGKHDVIVYHARNYTEIKGDPLYDPNRHTRAQIINWREDGTPDFGVPEVDSLEIETPVKA	soluble
MAGTSFLSDLLSGVTERGRALLFSGSKARDRVVDTDIETLCEMLLSSRGEASGMAIAAEILDRWSRFNAAEAVQFLHMLSDRFGAEAAALDKAIDAYRTDKSPMAVIALHNAAEPRRQELLRRLNLAPNGTQKLVRMRERLLETKEDRADLGAVDTDFAHLFSSWFNRGFLTLQPIDWTTPAHILEKIIKYEAVHEIAGWEELRRRLAPADRRCFAFFHPRLRDDPLVFVEVALTRSIPSAIADVLDESRDHIGADTATTAVFYSISNCQDGLRGISFGNFLIKQVVEDLRRDLPGLKEFVTLSPVPGFARWISKIRDPKSGFPLSPEDRNTLVLLDDPTWPEDKARADAVERILLPLAARYFITERTPDNRPVDPVARFHLGNGARLERLNFLGDRSVKAMRQAHGLMVNYLYKLEDIETNHEALAQRGEVAASPAVKALQGKIEPILPEKPKLEHHHHHH	soluble
